From the Immune Epitope Database (IEDB) come the findings set out here.

Some targets named below: HLA-A*03:01; HLA-A*11:01; HLA-A*31:01; HLA-A*33:01; HLA-A*68:01.
Common to all, as to assay: IEDB peptide-MHC binding, purified MHC/competitive/radioactivity; filed as Kd, often an IC50 or EC50 that approximates it; ≥ and ≤ were set here for values at or beyond the usual limits of such assays
Setting [1] is: source organism: Vaccinia virus WR.
Setting [2] is: source organism: SARS coronavirus Tor2.
[3] abbreviates: source organism: Vaccinia virus Copenhagen.
Where [4] appears, read: source organism: Mammarenavirus whitewaterense.
[5] abbreviates: source organism: Lymphocytic choriomeningitis virus (strain Armstrong).

KSLNRQTVSR: the Kd is 87.2 nM in the experiment with HLA-A*03:01 (setting [1]); 187 nM with HLA-A*11:01 (setting [1]); 7.78 nM with HLA-A*31:01 (setting [1]); 1.32 µM with HLA-A*33:01 (setting [1]); 7000 nM in the experiment with HLA-A*68:01 (setting [1]).

In the case of KSTQSVLCVK, the dissociation constant (Kd) in the experiment with HLA-A*03:01 (setting [1]) came to 60.7 nM; with HLA-A*11:01 (setting [1]), 0.497 nM; in the experiment with HLA-A*31:01 (setting [1]), 90 nM; with HLA-A*33:01 (setting [1]), 11.4 µM; with HLA-A*68:01 (setting [1]), 26.5 nM.

LACTDPSER: the dissociation constant (Kd) is not below 55100 nM in the experiment with HLA-A*03:01 (setting [1]); 19900 nM with HLA-A*11:01 (setting [1]); 572 nM with HLA-A*31:01 (setting [1]); 2.31 µM with HLA-A*33:01 (setting [1]); 173 nM with HLA-A*68:01 (setting [1]).

Consider LAELLEMKY, for which the dissociation constant (Kd) in the experiment with HLA-A*03:01 (setting [1]) is 14400 nM; in the experiment with HLA-A*11:01 (setting [1]), not below 77900 nM; with HLA-A*31:01 (setting [1]), not below 77900 nM; with HLA-A*33:01 (setting [1]) it was not below 77.7 µM; in the experiment with HLA-A*68:01 (setting [1]), not below 77700 nM.

In the case of LLAISAVYFK, the Kd turned out to be 3.35 nM in the experiment with HLA-A*03:01 (setting [1]); 11.9 nM with HLA-A*11:01 (setting [1]); 379 nM in the experiment with HLA-A*31:01 (setting [1]); 1.03 µM in the experiment with HLA-A*33:01 (setting [1]); 2.52 nM in the experiment with HLA-A*68:01 (setting [1]).

Regarding LLNKEMYLK, the Kd in the experiment with HLA-A*03:01 (setting [2]) was determined as 10.7 nM; with HLA-A*11:01 (setting [2]), 16.9 nM; in the experiment with HLA-A*31:01 (setting [2]) it was 155 nM; in the experiment with HLA-A*33:01 (setting [2]) it was 6.5 µM; with HLA-A*68:01 (setting [2]), 1100 nM.

In the case of LLSIVVDINK, the Kd was found to be 485 nM with HLA-A*03:01 (setting [1]); 35.9 nM with HLA-A*11:01 (setting [1]); 1090 nM with HLA-A*31:01 (setting [1]); 10.5 µM with HLA-A*33:01 (setting [1]); 110 nM with HLA-A*68:01 (setting [1]).

With LSDIISAEK, the equilibrium dissociation constant (Kd) with HLA-A*03:01 (setting [1]) came to 946 nM; in the experiment with HLA-A*11:01 (setting [1]) it was 34.1 nM; in the experiment with HLA-A*31:01 (setting [1]), 1800 nM; with HLA-A*33:01 (setting [1]), 12.6 µM; with HLA-A*68:01 (setting [1]), 185 nM.

For the sequence MLIFNVKSK, the Kd with HLA-A*03:01 (setting [1]) was 228 nM; in the experiment with HLA-A*11:01 (setting [1]), 491 nM; with HLA-A*31:01 (setting [1]) it was not below 21100 nM; in the experiment with HLA-A*33:01 (setting [1]) it was not below 45.8 µM; with HLA-A*68:01 (setting [1]), 0.841 nM.

Regarding NSEYIESKAK, the Kd is 5890 nM with HLA-A*03:01 (setting [1]); 1960 nM with HLA-A*11:01 (setting [1]); not below 34200 nM with HLA-A*31:01 (setting [1]); not below 30.6 µM with HLA-A*33:01 (setting [1]); 4190 nM in the experiment with HLA-A*68:01 (setting [1]).

On to NTFPNITLK, for which the dissociation constant Kd came to 53.1 nM with HLA-A*03:01 (setting [3]); 9.39 nM with HLA-A*11:01 (setting [3]); 595 nM in the experiment with HLA-A*31:01 (setting [3]); 0.164 µM in the experiment with HLA-A*33:01 (setting [3]); 0.779 nM with HLA-A*68:01 (setting [3]).

Take PISASDMQK: the Kd with HLA-A*03:01 (setting [1]) was 3230 nM; with HLA-A*11:01 (setting [1]), 163 nM; with HLA-A*31:01 (setting [1]), 282 nM; with HLA-A*33:01 (setting [1]) it was 7.29 µM; with HLA-A*68:01 (setting [1]), 8850 nM.

On to PLHILASNK, for which the Kd in the experiment with HLA-A*03:01 (setting [1]) was 161 nM; with HLA-A*11:01 (setting [1]) it was 6420 nM; with HLA-A*31:01 (setting [1]) it was 12500 nM; with HLA-A*33:01 (setting [1]), not below 77.7 µM; with HLA-A*68:01 (setting [1]) it was 11400 nM.

QIFNEDTSYY: the dissociation constant (Kd) in the experiment with HLA-A*03:01 (setting [1]) is 1420 nM; with HLA-A*11:01 (setting [1]) it was 725 nM; with HLA-A*31:01 (setting [1]) it was not below 35700 nM; in the experiment with HLA-A*33:01 (setting [1]) it was not below 70 µM; in the experiment with HLA-A*68:01 (setting [1]), 11.7 nM.

QKCGELLEFH: the dissociation constant (Kd) is not below 70000 nM with HLA-A*03:01 (setting [4]); not below 69700 nM in the experiment with HLA-A*11:01 (setting [4]); 11300 nM with HLA-A*31:01 (setting [4]); not below 70 µM with HLA-A*33:01 (setting [4]); not below 70100 nM with HLA-A*68:01 (setting [4]).

For the sequence QMREIITGNK, the equilibrium dissociation constant (Kd) is 15.8 nM in the experiment with HLA-A*03:01 (setting [1]); 1710 nM in the experiment with HLA-A*11:01 (setting [1]); 1950 nM with HLA-A*31:01 (setting [1]); not below 47.5 µM in the experiment with HLA-A*33:01 (setting [1]); 12400 nM with HLA-A*68:01 (setting [1]).

QQQGQTVTKK: the dissociation constant Kd in the experiment with HLA-A*03:01 (setting [2]) was 6440 nM; in the experiment with HLA-A*11:01 (setting [2]), 407 nM; with HLA-A*31:01 (setting [2]), 13700 nM; in the experiment with HLA-A*33:01 (setting [2]), not below 70 µM; with HLA-A*68:01 (setting [2]), 8240 nM.

RCHDHYLCR: the dissociation constant Kd with HLA-A*03:01 (setting [5]) was not below 22300 nM; in the experiment with HLA-A*11:01 (setting [5]), not below 25700 nM; with HLA-A*31:01 (setting [5]) it was 907 nM; with HLA-A*33:01 (setting [5]), not below 35.6 µM; with HLA-A*68:01 (setting [5]) it was not below 10000 nM.

For orientation: Kd means a measure of binding affinity in units of concentration.
